Experiments:
[1] = biological target: T1, human TIGIT (Sinobiological Co., Ltd., Cat. 10917-H08-H) (human, UniProt Q495A1 22-141); experiment: SPR (Biacore), captured antibody, TIGIT-His as analyte
T1 construct: also called huTIGIT; TIGIT-His
T1 sequence (looked up): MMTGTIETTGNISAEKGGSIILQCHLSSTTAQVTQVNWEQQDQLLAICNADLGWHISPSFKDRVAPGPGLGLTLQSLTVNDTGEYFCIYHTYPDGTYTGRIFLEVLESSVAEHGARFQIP

[2] = biological target: T2, TIGIT fusion protein with Fc or mFc tag (human, UniProt Q495A1 22-141); experiment: blocking cell ELISA: TIGIT-hFc or TIGIT-mFc (0.2 ug/ml) pre-mixed with the antibody, added to fixed CHO cells overexpressing CD155 (blocked ligand), OD450
T2 construct: extracellular domain; also called TIGIT-Fc; TIGIT-mFc
T2 sequence (looked up): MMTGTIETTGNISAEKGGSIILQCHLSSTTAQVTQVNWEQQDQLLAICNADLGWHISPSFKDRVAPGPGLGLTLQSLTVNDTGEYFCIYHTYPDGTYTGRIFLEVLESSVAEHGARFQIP

[3] = biological target: T2, TIGIT fusion protein with Fc or mFc tag; experiment: FACS blocking assay: TIGIT-mFc pre-incubated with the antibody, added to CHO cells overexpressing CD112 (blocked ligand), PE anti-mouse IgG, MFI
[4] = biological target: T3, Full-length human TIGIT on CHO cells overexpressing TIGIT (human, UniProt Q495A1 22-244); experiment: cell ELISA on fixed CHO cells overexpressing human TIGIT
T3 construct: also called TIGIT-CHO cells; CHO cells overexpressing human TIGIT
T3 sequence: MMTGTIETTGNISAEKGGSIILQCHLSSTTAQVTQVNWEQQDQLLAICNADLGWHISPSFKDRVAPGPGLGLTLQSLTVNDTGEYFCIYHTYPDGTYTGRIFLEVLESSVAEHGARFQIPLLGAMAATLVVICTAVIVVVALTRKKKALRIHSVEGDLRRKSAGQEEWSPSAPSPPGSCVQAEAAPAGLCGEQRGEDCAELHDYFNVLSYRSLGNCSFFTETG

[5] = biological target: T2, TIGIT fusion protein with Fc or mFc tag; experiment: HTRF blocking assay: TIGIT-Fc or TIGIT-mFc with biotinylated CD155 as the blocked ligand, ratio 665/620
[6] = biological target: T1, human TIGIT (Sinobiological Co., Ltd., …); experiment: SPR (Biacore T200), antibody captured via Protein A, huTIGIT in mobile phase, 1:1 Langmuir fit
[7] = biological target: T2, TIGIT fusion protein with Fc or mFc tag; experiment: ELISA: human TIGIT-Fc or TIGIT-mFc captured by coated anti-Fc antibody, HRP secondary antibody, OD450
[8] = biological target: T4, cynoTIGIT-mFc (fusion protein of cynoTIGIT extracellular domain and mouse IgG2a Fc fragment) (cynomolgus); experiment: ELISA: cynomolgus TIGIT-Fc or TIGIT-mFc captured by coated anti-Fc antibody, HRP secondary antibody, OD450
T4 construct: also called monkey TIGIT; cynomolgus TIGIT-mFc fusion protein
T4 sequence (chain, as listed by the source limits assumed): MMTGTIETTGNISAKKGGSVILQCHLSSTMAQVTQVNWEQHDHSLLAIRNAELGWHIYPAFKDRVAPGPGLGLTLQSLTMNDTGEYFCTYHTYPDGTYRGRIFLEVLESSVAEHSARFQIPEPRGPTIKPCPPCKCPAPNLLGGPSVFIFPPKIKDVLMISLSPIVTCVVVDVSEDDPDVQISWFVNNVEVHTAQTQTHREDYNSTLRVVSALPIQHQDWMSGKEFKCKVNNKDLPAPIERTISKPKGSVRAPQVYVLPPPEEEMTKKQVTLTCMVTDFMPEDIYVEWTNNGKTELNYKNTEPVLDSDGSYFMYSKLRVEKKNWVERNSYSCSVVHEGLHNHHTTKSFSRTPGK

[9] = biological target: T5, human TIGIT on SEB-activated human PBMC (human, UniProt Q495A1); experiment: flow cytometry on SEB-activated human PBMC, PE anti-human IgG, MFI
T5 construct: native, on the cell surface
T5 sequence (receptor chain, looked up): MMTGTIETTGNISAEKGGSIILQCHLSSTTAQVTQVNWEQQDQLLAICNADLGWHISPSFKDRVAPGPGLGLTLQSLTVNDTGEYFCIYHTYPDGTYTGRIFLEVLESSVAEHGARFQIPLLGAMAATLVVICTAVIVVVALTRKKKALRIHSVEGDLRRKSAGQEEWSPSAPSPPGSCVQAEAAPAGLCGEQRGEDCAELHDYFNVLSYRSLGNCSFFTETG

[10] = biological target: T3, Full-length human TIGIT on CHO cells …; experiment: FACS blocking assay on TIGIT-CHO cells; competitor CF633-labeled CD155-Fc at 2 ug/ml
[11] = biological target: T4, cynoTIGIT-mFc (fusion protein of …); experiment: SPR (Biacore T200), antibody held by Fc affinity capture, cynoTIGIT-mFc in mobile phase, 1:1 Langmuir fit
[12] = biological target: T2, TIGIT fusion protein with Fc or mFc tag; experiment: HTRF blocking assay: TIGIT-Fc or TIGIT-mFc with biotinylated CD155 as the blocked ligand, ratio 665/620; remark: listed apart in the source

B1: h1711-01 (antibody, V domains shown)
VH: EVQLVQSGAEVKKPGSSVKVSCKASGGTFSNYWIGWVRQAPGQGLEWMGDIYPGGAYTNYNEKFKDRVTITADKSTSTAYMELSSLRSEDTAVYYCARGDYYDSSGRAMDYWGQGTLVTVSS
VL: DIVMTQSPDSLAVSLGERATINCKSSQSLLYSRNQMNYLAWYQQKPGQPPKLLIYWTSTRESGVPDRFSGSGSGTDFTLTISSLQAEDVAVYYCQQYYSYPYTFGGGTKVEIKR
For B1, the Kd [1] was 1.49 nM, the koff [1] was 0.00209 s⁻¹ and the kon [1] was 1.4e+06 M⁻¹ s⁻¹.

B2: h1711-02 (antibody, human IgG4 S228P, kappa, V domains shown)
VH: EVQLVQSGAEVKKPGSSVKVSCKASGGTFSNYWIGWVRQAPGQGLEWIGDIYPGGAYTNYNEKFKDRVTITADKSTSTAYMELSSLRSEDTAVYYCARGDYYDSSGRAMDYWGQGTLVTVSS
VL: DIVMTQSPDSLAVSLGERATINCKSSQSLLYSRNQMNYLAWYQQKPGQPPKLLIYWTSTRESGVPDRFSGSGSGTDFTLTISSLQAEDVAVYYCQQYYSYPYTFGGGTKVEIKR
For B2, the Kd [1] was 1.24 nM, the koff [1] was 0.00171 s⁻¹ and the kon [1] was 1.38e+06 M⁻¹ s⁻¹.

B3: h1711-03 (antibody, human IgG4 S228P, kappa, V domains shown)
VH: EVQLVQSGAEVKKPGSSVKVSCKASGYTFSNYWIGWVRQAPGQGLEWIGDIYPGGAYTNYNEKFKDRVTITADKSTSTAYMELSSLRSEDTAVYYCARGDYYDSSGRAMDYWGQGTLVTVSS
VL: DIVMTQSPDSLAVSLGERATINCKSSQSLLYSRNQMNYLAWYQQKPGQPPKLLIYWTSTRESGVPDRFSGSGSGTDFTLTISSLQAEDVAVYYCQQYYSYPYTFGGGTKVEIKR
B3 was tested, and the Kd [1] was 0.556 nM, the koff [1] was 0.000723 s⁻¹ and the kon [1] was 1.3e+06 M⁻¹ s⁻¹.

B4: h1707-02 (antibody, human IgG4 S228P, kappa, V domains shown)
VH: EVQLVESGGGLVQPGGSLRLSCAASGFTFSDYHMYWVRQAPGKGLEWVAYISKGGISTYYPDTVKGRFTISRDNAKNSLYLQMSRLRAEDTAVYYCARQSSYDFAMDYWGRGTLVTVSS
VL: DIQMTQSPSFLSASVGDRVTITCKASQDVGTSVAWYQQKPGKAPKLLIYWASARHTGVPSRFSGSGSGTDFTLTISSLQPEDFATYYCQQYSSYPLTFGQGTKLEIKR
notes: also called humanized TIGIT antibody h1707-02
With B4 the “IC50 (read off the curve)” value [2] was roughly 1 nM, the “IC50 (read off the curve)” value [3] was roughly 5 nM and the EC50 [4] was 0.0872 nM. For the same binder, the “IC50 (read off the curve)” value [5] was roughly 3 nM, the Kd [6] was 0.108 nM and the koff [6] was 0.000188 s⁻¹. The kon [6] was 1.74e+06 M⁻¹ s⁻¹, the “EC50 (read off the curve)” value [7] was roughly 0.1 nM and the binding result [8] was “binds”. For the same binder, the “EC50 (read off the curve)” value [9] was roughly 0.3 nM and the IC50 [10] was 0.482 nM.

B5: 22G2-H3Q (antibody, human IgG4 S228P, kappa, V domains shown)
VH: QVQLQESGPGLVKPSETLSLTCTVSGGSVSSGIYYWSWIRQPPGKGLEWIGYIYYSGSTNYNPSLKSRVTISVDTSKNQFSLKLSSVTAADTAVYYCARDYYVSGNYYNVDYYFFGVDVWGQGTTVTVSS
VL: EIVLTQSPATLSLSPGERATLSCRASQSVSSYLAWYQQKPGQAPRLLIYDASNRATGIPARFSGSGSGTDFTLTISSLEPEDFAVYYCQQRSNWPPLFTFGPGTKVDIKR
In the case of B5, the “IC50 (read off the curve)” value [2] is reported as roughly 1 nM, the “IC50 (read off the curve)” value [3] is reported as roughly 5 nM and the Kd [6] is reported as 0.709 nM. For the same binder, the koff [6] was 0.000379 s⁻¹, the kon [6] was 535000 M⁻¹ s⁻¹ and the Kd [11] was 0.166 nM. For the same binder, the koff [11] was 0.000404 s⁻¹ and the kon [11] was 2.44e+06 M⁻¹ s⁻¹.

B6: 10A7 hIgG4 (antibody, V domains shown)
VH: EVQLVESGGGLTQPGKSLKLSCEASGFTFSSFTMHWVRQSPGKGLEWVAFIRSGSGIVFYADAVRGRFTISRDNAKNLLFLQMNDLKSEDTAMYYCARRPLGHNTFDSWGQGTLVTVSS
VL: DIVMTQSPSSLAVSPGEKVTMTCKSSQSLYYSGVKENLLAWYQQKPGQSPKLLIYYASIRFTGVPDRFTGSGSGTDYTLTITSVQAEDMGQYFCQQGINNPLTFGDGTKLEIKR
In the case of B6, the EC50 [4] is reported as 0.109 nM, the “EC50 (read off the curve)” value [7] is reported as roughly 0.2 nM and the IC50 [10] is reported as 0.678 nM.

B7: h1708-05 (antibody, human IgG4 S228P, kappa, V domains shown)
VH: EVQLVQSGAEVKKPGASVKVSCKASGYTFTNYWMHWVRQAPGQGLEWMGRIDPDSTGSKYNEKFKTRVTMTVDTSTSTVYMELSSLRSEDTAVYYCAREGAYGYYFDYWGQGTLVTVSS
VL: DIQMTQSPSSLSASVGDRVTITCRASENIYSYLAWYQQKPGKSPKLLIYNARTLAEGVPSRFSGSGSGTDFTLTISSLQPEDFATYYCQYHSGSPLPFGGGTKVEIKR
notes: also called humanized TIGIT antibody h1708-05
In the case of B7, the “IC50 (read off the curve)” value [12] is reported as roughly 1 nM.

B8: h1708-03 (antibody, human IgG4 S228P, kappa, V domains shown)
VH: EVQLVQSGAEVKKPGASVKVSCKASGYTFTNYWMHWVRQAPGQGLEWIGRIDPDSTGSKYNEKFKTRVTMTVDTSTSTAYMELSSLRSEDTAVYYCAREGAYGYYFDYWGQGTLVTVSS
VL: DIQMTQSPSSLSASVGDRVTITCRASENIYSYLAWYQQKPGKAPKLLIYNARTLAEGVPSRFSGSGSGTDFTLTISSLQPEDFATYYCQYHSGSPLPFGGGTKVEIKR
notes: also called humanized TIGIT antibody h1708-03
For B8, the “IC50 (read off the curve)” value [12] was roughly 1 nM.

B9: h1708-06 (antibody, human IgG4 S228P, kappa, V domains shown)
VH: EVQLVQSGAEVKKPGASVKVSCKASGYTFTNYWMHWVRQAPGQGLEWIGRIDPDSTGSKYNEKFKTRVTMTVDTSTSTAYMELSSLRSEDTAVYYCAREGAYGYYFDYWGQGTLVTVSS
VL: DIQMTQSPSSLSASVGDRVTITCRASENIYSYLAWYQQKPGKSPKLLIYNARTLAEGVPSRFSGSGSGTDFTLTISSLQPEDFATYYCQYHSGSPLPFGGGTKVEIKR
notes: also called humanized TIGIT antibody h1708-06
For B9, the “IC50 (read off the curve)” value [12] was roughly 1 nM.

B10: h1708-04 (antibody, human IgG4 S228P, kappa, V domains shown)
VH: EVQLVQSGAEVKKPGASVKVSCKASGYTFTNYWMHWVRQAPGQGLEWMGRIDPDSTGSKYNEKFKTRVTMTRDTSTSTVYMELSSLRSEDTAVYYCAREGAYGYYFDYWGQGTLVTVSS
VL: DIQMTQSPSSLSASVGDRVTITCRASENIYSYLAWYQQKPGKSPKLLIYNARTLAEGVPSRFSGSGSGTDFTLTISSLQPEDFATYYCQYHSGSPLPFGGGTKVEIKR
notes: also called humanized TIGIT antibody h1708-04
In the case of B10, the “IC50 (read off the curve)” value [2] is reported as roughly 1 nM, the “IC50 (read off the curve)” value [12] is reported as roughly 1 nM and the “IC50 (read off the curve)” value [3] is reported as roughly 5 nM. For the same binder, the EC50 [4] was 0.0848 nM, the “IC50 (read off the curve)” value [5] was roughly 2 nM and the Kd [6] was 0.104 nM. The koff [6] was 0.000183 s⁻¹, the kon [6] was 1.75e+06 M⁻¹ s⁻¹ and the “EC50 (read off the curve)” value [7] was roughly 0.1 nM. The Kd [11] was 0.285 nM, the koff [11] was 0.000352 s⁻¹ and the kon [11] was 1.24e+06 M⁻¹ s⁻¹. The “EC50 (read off the curve)” value [9] was roughly 0.3 nM and the IC50 [10] was 0.499 nM.

B11: h1708-02 (antibody, human IgG4 S228P, kappa, V domains shown)
VH: EVQLVQSGAEVKKPGASVKVSCKASGYTFTNYWMHWVRQAPGQGLEWMGRIDPDSTGSKYNEKFKTRVTMTVDTSTSTVYMELSSLRSEDTAVYYCAREGAYGYYFDYWGQGTLVTVSS
VL: DIQMTQSPSSLSASVGDRVTITCRASENIYSYLAWYQQKPGKAPKLLIYNARTLAEGVPSRFSGSGSGTDFTLTISSLQPEDFATYYCQYHSGSPLPFGGGTKVEIKR
notes: also called humanized TIGIT antibody h1708-02
In the case of B11, the “IC50 (read off the curve)” value [12] is reported as roughly 1 nM.

B12: h1708-01 (antibody, human IgG4 S228P, kappa, V domains shown)
VH: EVQLVQSGAEVKKPGASVKVSCKASGYTFTNYWMHWVRQAPGQGLEWMGRIDPDSTGSKYNEKFKTRVTMTRDTSTSTVYMELSSLRSEDTAVYYCAREGAYGYYFDYWGQGTLVTVSS
VL: DIQMTQSPSSLSASVGDRVTITCRASENIYSYLAWYQQKPGKAPKLLIYNARTLAEGVPSRFSGSGSGTDFTLTISSLQPEDFATYYCQYHSGSPLPFGGGTKVEIKR
notes: also called humanized TIGIT antibody h1708-01
In the case of B12, the “IC50 (read off the curve)” value [12] is reported as roughly 1 nM.

B13: ch1711 (antibody, V domains shown)
VH: QVQLQQSGTELVRPGTSVKMSCKASGYTFTNYWIGWAKQRPGHGLEWIGDIYPGGAYTNYNEKFKDKATLTADKSSSTAYMQFSSLTSEDSAIYYCTRGDYYDSSGRAMDYWGQGTSVTVSS
VL: DIVMSQSPSSLAVSVGEKVSMSCKSSQSLLYSRNQMNYLAWYQQKPGQSPKLLIYWTSTRESGVPDRFTGSGSGTDFTLTISSVKAEDLAVYYCQQYYSYPYTFGGGTKLEIK
notes: also called chimeric antibody corresponding to m1711
With B13 the Kd [1] was 0.249 nM, the koff [1] was 0.000455 s⁻¹ and the kon [1] was 1.83e+06 M⁻¹ s⁻¹.
